Measured values taken from patent publication US20240010695A1 (ASHER BIOTHERAPEUTICS, published 2024).

Molecular target: Wild type IL-10 dimer fused to xhCD8b (format E) (Homo sapiens (Human), UniProt P22301 19-178; P22301 19-178)
Test: SPR 37 C; fusion captured via Fc, IL-10RA ECD analyte
Method: To determine the affinities with IL-10RA, antibody or fusion proteins were captured onto the CM4 sensor chip via their Fc by covalently anti-human Fc antibody (Southern Biotech, Catalog No. 2081-01). Protein was not captured on flow cell 1 to serve as a reference surface. In-house generated human IL-10RA ECD, diluted in HBS-P+ buffer supplemented with 1 g/L BSA, at concentrations of 8, 40, 200, 1000, and 5000 nM, or buffer was flowed over the surface-captured fusion protein for 2 minutes at 30 μL/min. Dissociation was monitored for 4-5 minutes, and the anti-hIgG-Fc surface was regenerated with three 30-seconds injections of 75 mM phosphoric acid between analysis cycles. Binding data were analyzed by Biacore® Evaluation Software version 3.2 using a 1:1 Langmuir with mass transport model or by steady-state affinity analysis.
As shown in Example 3, fusion proteins comprising CD8 antibodies and IL-10 monomer polypeptides selectively activated CD8+ T cells over monocytes and CD4+ T cells. […] Amino acid substitutions and the amino acid sequences of representative mutant monomer IL-10 polypeptides that were evaluated are shown in Table 4A. […] In all cases, the IL-10 polypeptide was expressed as a fusion protein, with the antibody binding domain specified in column 2, and the format shown in parentheses, based on the schematics depicted in FIG. 6.

Sequence of Wild type IL-10 dimer fused to xhCD8b (format E) (P22301 19-178 limits assumed, chain 1 of 2): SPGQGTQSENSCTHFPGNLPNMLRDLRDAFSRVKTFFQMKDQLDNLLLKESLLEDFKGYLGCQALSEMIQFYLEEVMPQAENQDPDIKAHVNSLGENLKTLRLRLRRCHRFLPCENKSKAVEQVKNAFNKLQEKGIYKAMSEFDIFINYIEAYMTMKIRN
Sequence of Wild type IL-10 dimer fused to xhCD8b (format E) (P22301 19-178 limits assumed, chain 2 of 2): as the sequence (P22301 19-178 limits assumed, chain 1 of 2) above

- Kd: 4.5 nM
B1: human IL-10RA ECD (receptor)
chain: HGTELPSPPSVWFEAEFFHHILHWTPIPNQSESTCYEVALLRYGIESWNSISNCSQTLSYDLTAVTLDLYHSNGYRARVRAVDGSRHSNWTVTNTRFSVDEVTLTVGSVNLEIHNGFILGKIQLPRPKMAPANDTYESIFSHFREYEIAIRKVPGNFTFTHKKVKHENFSLLTSGEVGEFCVQVKPSVASRSNKGMWSKEECISLTRQYFTVTN
notes: In-house generated ECD; A biotinylated form held the fusions on the chip in the IL-10RB assay
